From patent US20190255154 come the findings set out here.

In the data set the target is T1, acyl ghrelin (active hormone) in mouse blood, Q9EQX0.
T1 chain: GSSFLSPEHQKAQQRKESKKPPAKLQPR

B1: native mouse BChE (wild-type mouse butyrylcholinesterase), expressed in mice from an AAV-8 vector (protein)
chain: EEDFIITTKTGRVRGLSMPVLGGTVTAFLGIPYAQPPLGSLRFKKPQPLNKWPDIHNATQYANSCYQNIDQAFPGFQGSEMWNPNTNLSEDCLYLNVWIPVPKPKNATVMVWIYGGGFQTGTSSLPVYDGKFLARVERVIVVSMNYRVGALGFLAFPGNPDAPGNMGLFDQQLALQWVQRNIAAFGGNPKSITIFGESAGAASVSLHLLCPQSYPLFTRAILESGSSNAPWAVKHPEEARNRTLTLAKFTGCSKENEMEMIKCLRSKDPQEILRNERFVLPSDSILSINFGPTVDGDFLTDMPHTLLQLGKVKKAQILVGVNKDEGTAFLVYGAPGFSKDNDSLITRKEFQEGLNMYFPGVSRLGKEAVLFYYVDWLGEQSPEVYRDALDDVIGDYNIICPALEFTKKFAELENNAFFYFFEHRSSKLPWPEWMGVMHGYEIEFVFGLPLGRRVNYTRAEEIFSRSIMKTWANFAKYGHPNGTQGNSTMWPVFTSTEQKYLTLNTEKSKIYSKLRAPQCQFWRLFFPKVLEMTGDIDETEQEWKAGFHRWSNYMMDWQNQFNDYTSKKESCTAL
B1: the “ratio of desacyl ghrelin (inactive peptide) over the active hormone in mouse blood, ghrelin ELISA, after AAV-BChE gene transfer (HCT116 colon cancer model)” value is reported as 2-fold rise and the “ratio of desacyl ghrelin (inactive peptide) over the active hormone in mouse blood, ghrelin ELISA, after AAV-BChE gene transfer (triple negative PDX model)” value is listed as 2-fold rise.
